Literature values as cited in article PMC7194015, “Proline-Rich Antimicrobial Peptides in Medicinal Maggots of Lucilia sericata Interact With Bacterial DnaK But Do Not Inhibit Protein Synthesis” (Frontiers in Pharmacology, 2020).

Target: DnaK (Escherichia coli) (UniProt P0A6Y8)
Sequence (P0A6Y8 2-638): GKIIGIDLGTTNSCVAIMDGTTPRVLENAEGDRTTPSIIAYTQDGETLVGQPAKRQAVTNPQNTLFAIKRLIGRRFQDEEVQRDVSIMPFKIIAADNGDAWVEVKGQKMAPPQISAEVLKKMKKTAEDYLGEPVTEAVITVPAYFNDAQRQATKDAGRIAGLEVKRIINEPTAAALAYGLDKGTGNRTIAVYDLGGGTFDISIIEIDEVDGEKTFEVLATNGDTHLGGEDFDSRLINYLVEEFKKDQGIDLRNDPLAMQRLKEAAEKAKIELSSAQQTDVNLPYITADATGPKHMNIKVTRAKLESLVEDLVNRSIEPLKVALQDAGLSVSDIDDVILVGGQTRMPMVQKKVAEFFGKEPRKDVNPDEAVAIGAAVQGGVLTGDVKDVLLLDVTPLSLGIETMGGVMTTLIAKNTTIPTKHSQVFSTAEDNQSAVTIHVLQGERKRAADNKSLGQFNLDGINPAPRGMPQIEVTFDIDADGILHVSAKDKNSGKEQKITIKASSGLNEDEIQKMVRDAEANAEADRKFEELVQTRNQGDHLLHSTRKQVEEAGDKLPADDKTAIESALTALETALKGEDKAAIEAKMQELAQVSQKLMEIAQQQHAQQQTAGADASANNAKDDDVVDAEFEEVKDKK

abaecin, sequence (P81463 whole entry): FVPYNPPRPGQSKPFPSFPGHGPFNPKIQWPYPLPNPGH

Kd: 100 nM
Substance: abaecin (from UniProt P81463)
